{"source": "patent US20260132192A1", "about": "(XBIOTECH, published 2026)", "binders": {"B1": {"name": "human monoclonal antibody designated XIA12 (antibody, V domains shown)", "VH": "QVQLVQSGAEVKKPGSSVKVSCKASGGRFTNYAILWVRQAPGQGLQWLGGIIPIFDETDHAQDFQDRLTITVDESMTTAYMELSSLRPEDTAIYYCATGSNSYYGLYWGQGTLVTVSS", "VL": "DIVMTQSPDFLAVSLGERATINCKSSQSVLYSSDNKNYLAWYQQKAGQPPKLLIYWASTRESGVPDRFSGSGSATDFTLTISSLQAEDVAVYYCQQYYSLPITFGQGTRLEIKR"}}, "molecular_target": "T1, recombinant human IL-1α (human, UniProt P01583 113-271)", "T1 sequence (looked up)": "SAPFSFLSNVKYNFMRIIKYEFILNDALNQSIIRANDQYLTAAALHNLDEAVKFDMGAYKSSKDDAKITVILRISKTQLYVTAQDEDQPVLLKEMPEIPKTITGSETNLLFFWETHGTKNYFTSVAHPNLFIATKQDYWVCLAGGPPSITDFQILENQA", "assay": "cell-based or functional assay"}
{"binder": "B1", "values": [{"measurement": "HUVEC-based potency assay; ICAM-1 expression by flow cytometry after hIL-1α stimulation; IC50", "value": 0.0187, "unit": "µg/mL"}]}
